Experiment: yeast display, Sf9 membrane polyspecificity reagent, FACS + sequencing; frameworks hold sequencing errors
Summary of the method: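 Using colony PCR, genes from sorted yeast display clones were amplified, then sequenced on MiSeq at 2 × 250 and filtered by CDR length. The clones had been stained with 10% biotinylated, detergent-solubilized Sf9 membrane reagent for 1 hour at 4 °C and sorted by FACS into low and high (top ~1%) gates on anti-HA and streptavidin fluorescence. Polyreactivity labels come from the gate of origin.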

Sequence | polyreactivity (PSR sort gate)
QVQLVESGGGLVQAGGSLRLSCAASGTFARYAMGWYRQAPGKERELVAAITRRGGNTYYADSVKGRFTISRDNAKNTVYLQMNSLKPEDTAVYYCARDYYYNYWWMDYWGQGTQVTVSS | high polyreactivity
QVQLVESGGGLVQAGGSLRLSCAASGRNILVYAMGWYRQAPGKERELVAAISSGGSTYYADSVKGRFTISRDNAKNTVYLQMNSLKPEDTAVYYCAAQFDVYYSRQPYDYNRSGYWGQGTQVTVSS | low polyreactivity
QVQLVESGGGLVQAGGSLRLSCAASGFTFDYYAMGWYRQAPGKERELVAAITSGSITYYADSVKGRFTISRDNAKNTVYLQMNSLKPEDTAVYSCAAVGLVRYGYWGQGTQVTVSS | high polyreactivity
QVQLVESGGGLVQAGGSLRLSCAASGSTFGRYAMGWYRQARGKERELVAAISYGDGSTYYADSVKGRFTISRDYAKNTVYLQINSLIPEDTAVYYCATETETYSCWDPVWADDYDYWGQGTQVTVSS | low polyreactivity
QVQLVESGGGLVQAGGSLRLSCAASGSIFSYYVMGWYRQAPGKERELVAVITDRGGRTYYADSVKGRFTISRDNAKNTVYLQMNSLKPEDTAVYYCAADDTPYNSKRFDYWGQGTQVTVSS | high polyreactivity
QVQLVESGGGLVQAGGSLRLSCAASGRTFPVYAMGRYRPAPGKERELVAAISWSGGTTYYADSVPGRFTISRDNAKNTVYLQKHSLKPEDTAVYFCAARFGVRRRYDYWGQGTQVTVSS | high polyreactivity
QVQLVESAGGLVQAGGSLRLSCAASGRIFRYYVMGWYRQAPGKEREFVASISGRGASTYYADSVKGRFTISRDNAKNTVYLQMNSLKPEDTAVYYCNADVWLLSYFPEYDYWGQGTQVTVSS | low polyreactivity
QVKLVESGGGLVQAGGSLSLSCDASGNTFVRNVMGSYRQEPGKERELLAAIRSGTRTYYADSVKGRFTISRDNAKNTVYLQINSLKPEDTAVYYCATYRTYNSYRYDYWGQGTQVTVSS | high polyreactivity
QVQIVESGGGLVQAGGSLRVTCAASGSIFPPKAMGWYRQAPGKERELLADISGSGRTYYADSVKGRFTISRDNAKNTVYLQMNSLNPEDTAVYYCAARQQRRPTTRVFGYWGQGTQVTVSS | high polyreactivity
QVQLVESGGGLVQAGGSLRLSCAASGRTFARNPMGWYRHAPGKERELVASIRWRGGSTYYADSVKGRFTISRDNAKNTVYLQMNRLKPEDTAVYYCATRYPYYVGRGYISYDYWGQGTQVTVSS | high polyreactivity
QVQLVESGGGLVQAGGSLRFSCAASGRTFPVYAMGWYRQAPGKEREFVAAISYRTGSTYYADSVKGRFTISRDNAKNTVYLQMNSLKPVDSAVYYCAADYRGSYWRYYYWGQGTQVTVSS | high polyreactivity
QVQLVESGGGLVQAGGSLRLSCAASGSIFGKYAMGWYRQAPGKERELVAAISDSGSITYYADSVKGRFTISRDNAKNTVYLQMNSLKPEDTAVYYCAAERYLLWGFEENYWGQGTQVTVSS | high polyreactivity
QVQLVESGGGLVQAGGSLRLSCAASGSTLSENVMGWYRQAPGKERELVATISYSGDSTYYADSVKGRFTISRDNAKNTVYLQMNSLIPEDTAVYYCNADHFVTVGQFDWYDSWGQGTQVTVSS | low polyreactivity
QVQLVESGGVLVQAGGSLRLSCAASGSIFWPNSMGWYRQAPGKERELVAGISYSGGRTYYADSVKGRFTISRDNAKNTVYLQMNSLKPEDTAVYYCAALSRRDYNYWGQGTQVTVSS | high polyreactivity
QVQLVESGGGLVQAGGSLRFTFGATGIIFYRNTMGWYSLAPGKHRELVASLSRGGSTNYADSVKGRFTISRDNAKTTVYLQMNRLKPEDTAVDYCAAYTDIPLSYYRGYTMDYWGQGTQVTVSS | low polyreactivity
QVQLVESGGGLVQAGGSLRLSCAASGRTFGQNAMGWYRQAPGKERELVAVISSRGGSTYYADSVKGRFTISRDNAKNTVYLQMNSLKPEDTAVYYCNTDAQSRQTIRTGYDSWGQGTQVTVSS | high polyreactivity
QVQLVESGGGLVQAGGSLRLSCAASGSTSKWYAMGWYRQAPGKERELVAAITKTGGRTYYADSVKGRFTFSRDYAKNTVYLQMNSLKPEDTAVYYCAVEYLRGFIVIYDNWGQGTQVTVSS | high polyreactivity
QDQLEESGGGLVQAGGSLRLSCAASGRTFIYYAMGWYRQAPGKERELVAAITRSGGITNYADSVKGRFTISRDNSKNTVYLQMNSLKTEDTEVYYCAARFYGRRCIYGYWGQGTQVTVSS | high polyreactivity
QDHLVESGGGLVQAGGSLRLICAASGSTFTQYTMGWYRQAPGKERELVAAISSGGGRTYYADSVKGRFTISRDNAKNTVYLQMYSLKPEDTAFYYCAADYQNSRRGRGNSQYYYWGQGTQVTVSS | low polyreactivity
QVQLVESGGGLVQAGGSLRIICAASGRIFTFYAMGWYRQATGKARELVASIRSSTYYADSVKGRFTISRDNAKYTVYLQMNSLKPEDTALYYCNVRLSYSYISPSDWNFDYWGQGTQVTVSS | low polyreactivity
QVQLVESGGGLVQAGGSLRLSCAASGRIFVWNVMGWYRQAPGKERELVAAITYSGDTTYYADSVKGRFTISRDNAKNTVYLQMNSLKPEDTAFYYCAAVRRGGGVKYDYWGQGTQVTVSS | high polyreactivity
QVQLVESGGGLVQAGGSLRKSCAASGRTFGYNTMGWYRQAPGKERELVAAITWSGGRTYYADSVKGRFTISRDNAKNTVYLQMNSLKPEDTAVYYCIAVIGREFDYWGQGTQVTVSS | high polyreactivity

Sequence | polyreactivity (PSR sort gate)
QDQLVESGGGLVQAGGSLRLSCAASGFTFGSYAMGWYRQAPGKERELVAAISSNGGNTYYADSVKGRFTISRDNAKNTVYLQMNSLKPEDTAVYYCAARYPSGTRKWYGYWGQGTQVTVSS | high polyreactivity
QVQLVESGGGLVQAGGSLRLSCAASGSTLNRYAMGWYRQAPGKERELVAAINGSGGSTYYADSVKGRFTISRENAKNTVYLLINSLKQEDSAVYYCAAYGYSFAYGAYGYWGQGTQVTVSS | high polyreactivity
QVQLVESGGGLVQAGGSLRLSCAASGSTLGYYVMGWYRQAPGKERELVAAITGGGSTDYADSVKGRFTISRDNEKNTVYLQMNSLKPEDTAVYYCAAERTRTGQLFWWGPIYDYWGQGTQVTVSS | low polyreactivity
QVQLVESGGGLVQAGGRLRLSCEASGNIFGYYAMGWSRQAPGKERELVAAITRSGSSTYYADSVKGRFTISRDNAKNNVFLQMNSLKPEDTAVYYCSADNFYQAYGYWGQGTQVTVSS | low polyreactivity
QVQLVESGGGLVQAGGSLRLSCAASGITFYDYDMGWYRQAPGKERELVAAINSGASTSYADSVKGRFTISRDNAKNTVYLQMNSLKPEDTAVYYCNADVRVDYLSGDLDYWGQGTQVTVSS | low polyreactivity
QVQLVESGGGLVQAGGSLRLSCAASGFTFSAYTMGWYRQAPGKERELVAAINWSGANTYYADSVKGRFTISRDNAKNTVYLQMNSLKPEDTAVYYCNAEDDYTYDRSFGGYKYDYWGQGTQVTVSS | low polyreactivity
QVQLVESGGGLVQAGGSLRLSCAASGRIFDWNMGWYRQAPGKERELVAGITFSVDSTYYADSVKGRFTISRDNAKNTVYLQMNSLKPEDTAYWGQGTQVTVSS | low polyreactivity
QVQLVESGGGLVHAGGSLRLSCAASGSIFYYYAMGWYRPAPGKERELVAAIYNGGSTYYADSVKGRFTISRDNAKNTVYLEMNSLKPEDTAVYYCNAGYSYWYRDLGYDSWGQGTQVTVSS | low polyreactivity
QVQLVESGGGLVQAGGSLRLSCAASVSIFRWNTMGWYRQAPGKERELVASITFTGGRTYYADSVKGRFTISRDNAKNTVYLQMNSLKPEDTAVYYCNGLVVTYPKWKYDYWGQGTQVTVSS | high polyreactivity
QVQLVESWGGLFQAGGSLRLSCAASGSIFVWYAMGRSRQAPGKEMELVAVISYGGDRTSYADSVKGRFTISRDNAKNTVYLQMNSLKPEDTAVYYCAARPFYRGYYYWGQGTQVTVSS | high polyreactivity
QVQLVESGGGLVQAGGSLRLSCAASGSIIIGNAMGWYRPAPGKERELVAVINGSDGTTYYADSVKGRFTISRDTAKNTVYLQMNSLKPEDTAVYYCNADFIDPSVYDYNYWGQGTQVTVSS | low polyreactivity
QVQLVESGGGLVQAGGSLRLSCAASGRTFIKYAMGWYRQAPGKERELVAAISRNGGSTNYADSVKGRFTISRDNAKNTVYLHMNSLKPEDTAVYYCAAVGTVSRTVGYNYWGQGTQVTVSS | high polyreactivity
QVQLVESGGGLVQAGGSLRLSCAASGSTFGKYAMGWYRQAPGKEREFVAGISWSADSTYYADSVKGRFTISRDNAKNTVYLQMNSLKPEDTAFYYCATDGSSDEFRPEYDYWGQGTQVTVSS | low polyreactivity
QVQLVESGGGLVQAGGSLRLSCAASGRTFYNAMGWYRPAPGKERELVAAITTGGGTKYADSVKGRCTISRDNAKNTVYLQMNSLKPEDTAVYYCNTDEWYHFYHGAHKYDYWGQGTQVTVSS | low polyreactivity
QVQLVESGGGLVQAGGSLRLSCAASGSTFYWYAMGWYRQAPGKERQLVAAITRNAGSTYYADTVKGRFTISRDNAKNTVYVQMNSLKPEDTAVSYCAADGARSAFLLAYYYWGQGTQVTGSS | low polyreactivity
QVQIVESGGGLVQAGGSLRLICAASGRIFRYYVMGWYRQAPGKERELVATITSGGSTNYADSVKGRFTISRDNAKNTVYLQMNSLKPEDTAVYYCNRDRYPYYYAYNFWGQGTQVTVSS | low polyreactivity
QVQLVESGGGLVKAGGSLRLSCAATGRIFTYMGWYRQARGKERELVAGISWRGTSTYYADSVKGRFTISRDNAKNSVYLQMNSLKPEDTAVYYCAARWAYHVRGDYWGQGTQVTVSS | low polyreactivity
QVQHVESGGALVQAGGSLRLSCAASGFTFTRNTMGWYRQAPGKERELVAAITRGGSTNYADSVKGRFTISRDNAKNTVYLQMNSLKPEDTAVYYCNKGRNVVLVRTADDYWGQGTQVTVSS | low polyreactivity
QVQLVESGGGLVQAGGSLRLSCAASGRTLWWYAMAWYRQAPGKERELVAAIDYSDGNTYYADSVKGRFTISRDNAKNTVYLQMNSLKPEDTAVYYCAAEGYYNYGSYYWGQGTQVTVSS | high polyreactivity
QDQLVESGGGLVQAGGSLRLSCAASGGNFYGNAMGWYRQAPGKERELVATISRRGGSTYYADSVKGRFTISRDNAKNSVYLQMNSLKPEDTAVYYCAADARSSYYTKRFDYWGQGTQVTVSS | high polyreactivity
QFQLVESGGGLVQAGGSLRLSCAASGYIFYGYVMGWYRQAPGKERELVAGITYSGGGGTHYADSVNGRFTISRDNAKNTVYLQMNSLKPEDTAVYYCAKADPQLNRTYYSYGMDYWGHGTQVTVSS | low polyreactivity

Reference: the nanobody polyreactivity screen of Harvey et al. (2022)
